# Assay results published in article PMC9230926.
# Substrate: O=P(O)(O)OP(=O)(O)O
# Experiment: purified protein
# Conditions: Mg2+ (MgPPi complex is the true substrate; free PPi inhibits)
protein,measurement,value
UDP-glucose pyrophosphorylase (UGPase) (Hordeum vulgare) (protein) MAAAAVAADSKIDGLRDAVAKLGEISENEKAGFISLVSRYLSGEAEQIEWSKIQTPTDEVVVPYDTLAPPPEDLDAMKALLDKLVVLKLNGGLGTTMGCTGPKSVIEVRNGFTFLDLIVIQIESLNKKYGCSVPLLLMNSFNTHDDTQKIVEKYSNSNIEIHTFNQSQYPRIVTEDFLPLPSKGQTGKDGWYPPGHGDVFPSLNNSGKLDTLLSQGKEYVFVANSDNLGAIVDIKILNHLIHNQNEYCMEVTPKTLADVKGGTLISYEGRVQLLEIAQVPDEHVDEFKSIEKFKIFNTNNLWVNLKAIKRLVDAEALKMEIIPNPKEVDGVKVLQLETAAGAAIRFFEKAIGINVPRSRFLPVKATSDLLLVQSDLYTLVDGYVIRNPARVKPSNPSIELGPEFKKVANFLARFKSIPSIVELDSLKVSGDVSFGSGVVLKGNVTIAAKAGVKLEIPDGAVLENKDINGPEDI,Km,60 µM
